Here are results for one molecule from article PMC5727390, “Targeted inhibition of STAT/TET1 axis as a therapeutic strategy for acute myeloid leukemia”.

This series has as its target STAT3 (UniProt P40763 127-722). As to the kind of experiment: EMSA; no compound; Signosis EMSA Assay Kit, manufacturer's protocol with minor modifications; buffer, salt, pH and temperature not stated. The settings on record: chain copies: 2; label: 5' biotin on both strands; blunt.

Chain of STAT3 (P40763 127-722): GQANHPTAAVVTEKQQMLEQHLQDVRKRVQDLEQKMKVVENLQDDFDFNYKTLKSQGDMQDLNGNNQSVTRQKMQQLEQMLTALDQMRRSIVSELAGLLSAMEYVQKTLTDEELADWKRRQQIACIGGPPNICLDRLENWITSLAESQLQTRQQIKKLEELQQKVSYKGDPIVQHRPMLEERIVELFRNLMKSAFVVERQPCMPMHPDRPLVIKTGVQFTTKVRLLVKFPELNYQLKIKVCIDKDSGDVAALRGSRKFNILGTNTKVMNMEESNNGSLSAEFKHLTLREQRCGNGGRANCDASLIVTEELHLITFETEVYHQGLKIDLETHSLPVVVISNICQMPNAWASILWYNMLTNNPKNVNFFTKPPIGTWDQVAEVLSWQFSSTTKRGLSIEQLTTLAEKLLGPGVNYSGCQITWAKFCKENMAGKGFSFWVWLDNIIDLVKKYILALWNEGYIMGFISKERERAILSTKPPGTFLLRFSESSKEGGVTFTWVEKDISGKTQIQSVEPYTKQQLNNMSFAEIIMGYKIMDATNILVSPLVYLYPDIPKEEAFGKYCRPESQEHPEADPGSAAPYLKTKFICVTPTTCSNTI

B1: TET1-CPG probe (dsDNA)
DNA 1: CCGGTAGGCGTCCTCCGCGACCCGC
DNA 2: GCGGGTCGCGGAGGACGCCTACCGG
For the molecule B1, the binding result was “binds”.
